According to US20040260069A1 (Merck KGaA, published 2004):

What was measured:
[1] = biological target: T1, TNF alpha (PeproTech EC Ltd, London, UK) (human, UniProt P01375 77-233); test: plate ELISA, TNF alpha coated at 2.5 µg/ml, anti-human IgG-HRP detection
T1 construct: also called tumor necrosis factor alpha

biotinylated TNF alpha = biological target: T2, biotinylated TNF alpha (human, UniProt P01375 77-233, biotinylated using EZ link Sulfo-NHS-biotin (sites not given)); test: competition ELISA, antibody against plate-bound TNF alpha RII-Fc for biotin-TNF alpha
T2 construct: also called biotin-TNF alpha
T2 sequence (P01375 77-233 limits assumed): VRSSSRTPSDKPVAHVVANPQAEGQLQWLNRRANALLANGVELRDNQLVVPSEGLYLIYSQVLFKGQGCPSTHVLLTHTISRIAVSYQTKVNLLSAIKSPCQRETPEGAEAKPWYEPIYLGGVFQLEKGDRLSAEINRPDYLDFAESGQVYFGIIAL

T1 sequence (P01375 77-233 limits assumed): as above

B1: modified anti-TNF alpha antibody Vh5/Vk12 (antibody, human IgG1, V domains shown)
VH: EVKLEESGGGLVQPGGSLRLSCAASGFTFSNHWMNWVRQSPEKGLEWVAETRSKSTNSATHYAESVKGRFTISRDDSKNSLYLQMNSLKTEDTGVYYCSRNYYGSTYDYWGQGTTVTVSS
VL: DIQLTQSPDTSSASPGERASFSCRASQFVGSSIHWYQHTTNGSPRLLIKYASESMSGVPSRFSGSGSGTDFTLTINSLEAEDAATYYCQQSHSWPFTFGSGTNLEVKR
notes: Expressed in NS/0 cells as whole antibody with a human IgG1 constant region (vector pSVgpt) and a human kappa constant region (vector pSVhyg); also called modified antibody of the invention; preferred antibody of the present invention
B1: binds [1]; binds (biotinylated TNF alpha).
